{
  "source": "paper PMC515366",
  "about": "“A Drosophila Pattern Recognition Receptor Contains a Peptidoglycan Docking Groove and Unusual L,D-Carboxypeptidase Activity” (PLoS Biology, 2004)",
  "substrate": "CC(=O)N[C@H]1[C@H](O[C@H]2[C@H](O[C@H](C)C(=O)N[C@@H](C)C(=O)N[C@H](CCC(=O)N[C@@H](CCC[C@@H](N)C(=O)O)C(=O)N[C@H](C)C(=O)O)C(=O)O)[C@@H](NC(C)=O)[C@@H]3OC[C@H]2O3)O[C@H](CO)[C@@H](O)[C@@H]1O",
  "experiment": "purified protein",
  "type": "biochemical, Drosophila melanogaster",
  "conditions": "20 mM HEPES pH 7.4, 2.5 mM EDTA, 37 °C, substrate 10–500 μM, releases terminal D-Ala",
  "data": [
    {"protein": "rPGRP-SA (recombinant Drosophila PGRP-SA) (Drosophila melanogaster) (protein, full-length secreted protein, own signal peptide removed, 177 residues plus C-terminal 6xHis tag; baculovirus, Hi-5 insect cells; monomer by gel filtration) GKSRQRSPANCPTIKLKRQWGGKPSLGLHYQVRPIRYVVIHHTVTGECSGLLKCAEILQNMQAYHQNELDFNDISYNFLIGNDGIVYEGTGWGLRGAHTYGYNAIGTGIAFIGNFVDKLPSDAALQAAKDLLACGVQQGELSEDYALIAGSQVISTQSPGLTLYNEIQEWPHWLSNP", "values": [
      {"measurement": "Km", "value": "21.4 ± 1.8", "unit": "µM"},
      {"measurement": "kcat", "value": "0.000133 ± 5.6e-06", "unit": "s⁻¹"}
    ]}
  ]
}
